The series deals with human Oct-1 E30D/M33L (rodent-like);VP16ΔC;HCF-1N380 (beta-propeller domain) (Homo sapiens;HSV-1;Homo sapiens). The series is described as follows: EMSA. To be noted: 10 mM Hepes pH 7.9, 75 mM KCl, 1 mM EDTA, 10 mM DTT, 1 µg poly-dI-dC, up to 4 µl reticulocyte lysate, room temperature 20 min; 4% native gel in 1x …. (In general: Mobility shift assays separate free from complexed probe on a gel.)

Regarding ICP0 (OCTA+)TAATGARAT probe, the binding signal (fold reduction of VIC vs wild type Oct-1) was over 100.

(Values after paper PMC3285597.)
